This is an account of results in US9206432B2, “Sulfonylurea-responsive repressor proteins” (priority 2008, dated 2015).

First the molecules themselves.
B1: L1-2: SU-responsive TetR(B) ligand binding domain variant, library L1 hit, SEQ ID NO: 3 (protein)
chain: MGSRLDKSKVINSALELLNEVGIEGLTTRKLAQKLGVEQPTLYWHVKNKRALLDALAIEMLDRHATHFCPLEGESWQDFLRNNAKSFRCALLSHRDGAKVCLGTAVTEKQYETMENILAFLCQQGFSLENALYARRAVIAFTLGCVLWDQEYQVAKEERETPTTDSMPPLLRQARELIDHQGAEPAFLFGLELIICGLEKQLKCESGS
modifications: Sulfonylurea responsive repressor L1-02
B2: L1-7: SU-responsive TetR(B) variant, library L1 hit, SEQ ID NO: 4 (protein)
chain: MGSRLDKSKVINSALELLNEVGIEGLTTRKLAQKLGVEQPTLYWHVKNKRALLDALAIEMLDRHNTHFCPLEGESWQDFLRNNAKSWRCALLSHRDGAKVVLGTAITEKQYETHENPLAFLCQQGFSLENALYAIAAVRRFTLGCVLVDQERQVAKEERETPTTDSMPPLLRQASELQDHQGAEPAFLFGLELIICGLEKQLKCERGS
modifications: Sulfonylurea responsive repressor L1-07
B3: L1-20: SU-responsive TetR(B) variant, library L1 hit, SEQ ID NO: 6 (protein)
chain: MGSRLDKSKVINSALELLNEVGIEGLTTRKLAQKLGVEQPTLYWHVKNKRALLDALAIEMMDRHQTHFCPLEGESWQDFLRNNAKSMRCALLSHRDGAKVFLGTAWTEKQYETVENLLAFLCQQGFSLENALYALNAVATFTLGCVLWDQEKQVAKEERETPTTDSMPPLLRQAHELGDHQGAEPAFLFGLELIICGLEKQLKSESGS
modifications: Sulfonylurea responsive repressor L1-20

For one data set, the system named is lacZ under control of the tetA promoter (PtetA) in E. coli KM3. In kind it is cell-based. The settings on record: Table 4; chlorimuron 20 ppm; 48 hrs at 30° C.
Turning to B1, the “relative β-galactosidase activity, inducer Ci” value turned out to be 13.6.
Consider B2, for which the “relative β-galactosidase activity, inducer Ci” value is 16.5.
On the same count and under the same terms, the same measure for B3: 13.5.

The data set is the same for the next values; noted with them: Table 4; chlorsulfuron 20 ppm; 48 hrs at 30° C.
Regarding B1, the “relative β-galactosidase activity, inducer Cs” value was determined as 4.1.
Turning to B2, the “relative β-galactosidase activity, inducer Cs” value is given as 3.1.
On the same count and under the same terms, under B3 stands 22.0.

The data set is the same for the next values; noted with them: Table 4; ethametsulfuron 20 ppm; 48 hrs at 30° C.
With B1, the “relative β-galactosidase activity, inducer Es” value turned out to be 5.8.
In the case of B2, the “relative β-galactosidase activity, inducer Es” value is listed as 0.1.
The same measure, in the same setting: under B3 stands 15.0.

Still in this data set, the particulars now being: Table 4; metsulfuron 20 ppm; 48 hrs at 30° C.
With B1, the “relative β-galactosidase activity, inducer Ms” value stood at 1.9.
Still for that read-out and setting: under B2 stands 0.2.
Same read-out and setting: the same measure for B3: 12.4.

Still in this data set, the particulars now being: Table 4; nicosulfuron 20 ppm; 48 hrs at 30° C.
B1: the “relative β-galactosidase activity, inducer Ns” value is recorded as 1.3.
As for B2, the “relative β-galactosidase activity, inducer Ns” value is 0.1.
Turning to B3, the “relative β-galactosidase activity, inducer Ns” value is given as 1.6.

Staying with this data set, now noted: Table 4; rimsulfuron 20 ppm; 48 hrs at 30° C.
For the molecule B1, the “relative β-galactosidase activity, inducer Rs” value was determined as 1.3.
On to B2, for which the “relative β-galactosidase activity, inducer Rs” value was 0.2.
On the same count and under the same terms, under B3 stands 2.0.

The data set is the same for the next values; noted with them: Table 4; sulfometuron 20 ppm; 48 hrs at 30° C.
Take B1: the “relative β-galactosidase activity, inducer Sm” value is 4.7.
As to B2, the “relative β-galactosidase activity, inducer Sm” value was determined as 6.4.
Take B3: the “relative β-galactosidase activity, inducer Sm” value is 6.0.

The data set is the same for the next values; noted with them: Table 4; thifensulfuron 20 ppm; 48 hrs at 30° C.
On to B1, for which the “relative β-galactosidase activity, inducer Ts” value is listed as 1.6.
Regarding B2, the “relative β-galactosidase activity, inducer Ts” value came to 0.1.
Same read-out and setting: the same measure for B3: 2.6.

Staying with this data set, now noted: Table 4; tribenuron 20 ppm; 48 hrs at 30° C.
For the molecule B1, the “relative β-galactosidase activity, inducer Tb” value amounted to 1.7.
Turning to B2, the “relative β-galactosidase activity, inducer Tb” value was 0.2.
Take B3: the “relative β-galactosidase activity, inducer Tb” value is reported as 2.6.
